Results reported in paper PMC12793716, “Linked dimers of the AAA+ ATPase Msp1 reveal energetic demands and mechanistic plasticity for substrate extraction from lipid bilayers” (Febs Letters, 2025).
Positions count from the first letter of the chain named. Numbers in names are those of the source.

B1: His6‐TEV‐Msp1 E193Q Monomer (enzyme, UniProt P28737 33-362, looked up)
chain: DVESGPLSGKSRESKAKQSLQWEKLVKRSPALAEVTLDAYERTILSSIVTPDEINITFQDIGGLDPLISDLHESVIYPLMMPEVYSNSPLLQAPSGVLLYGPPGCGKTMLAKALAKESGANFISIRMSSIMDKWYGESNKIVDAMFSLANKLQPCIIFIDQIDSFLRERSSTDHEVTATLKAEFMTLWDGLLNNGRVMIIGATNRINDIDDAFLRRLPKRFLVSLPGSDQRYKILSVLLKDTKLDEDEFDLQLIADNTKGFSGSDLKELCREAALDAAKEYIKQKRQLIDSGTIDVNDTSSLKIRPLKTKDFTKKLRMDATSTLSSQPLD
notes: Msp1 with the Walker B mutation E193Q, soluble construct: deletion of the first 32 residues as stated for the soluble constructs; A TEV site follows the His6 tag; No Strep tag; also called EQ; EQ monomer; source: E. coli BL21 pRIL, purified (Ni-NTA)
B2: His6‐WT‐EQ‐2xStrep Dimer (covalently linked Msp1 dimer, soluble) (enzyme)
chain: DVESGPLSGKSRESKAKQSLQWEKLVKRSPALAEVTLDAYERTILSSIVTPDEINITFQDIGGLDPLISDLHESVIYPLMMPEVYSNSPLLQAPSGVLLYGPPGCGKTMLAKALAKESGANFISIRMSSIMDKWYGESNKIVDAMFSLANKLQPCIIFIDEIDSFLRERSSTDHEVTATLKAEFMTLWDGLLNNGRVMIIGATNRINDIDDAFLRRLPKRFLVSLPGSDQRYKILSVLLKDTKLDEDEFDLQLIADNTKGFSGSDLKELCREAALDAAKEYIKQKRQLIDSGTIDVNDTSSLKIRPLKTKDFTKKLRMDATSTLSSQPLDASGSGGSEASASAGAAGSGDGSGSGGSEGGTSGATDVESGPLSGKSRESKAKQSLQWEKLVKRSPALAEVTLDAYERTILSSIVTPDEINITFQDIGGLDPLISDLHESVIYPLMMPEVYSNSPLLQAPSGVLLYGPPGCGKTMLAKALAKESGANFISIRMSSIMDKWYGESNKIVDAMFSLANKLQPCIIFIDQIDSFLRERSSTDHEVTATLKAEFMTLWDGLLNNGRVMIIGATNRINDIDDAFLRRLPKRFLVSLPGSDQRYKILSVLLKDTKLDEDEFDLQLIADNTKGFSGSDLKELCREAALDAAKEYIKQKRQLIDSGTIDVNDTSSLKIRPLKTKDFTKKLRMDATSTLSSQPLD
notes: Msp1, subunit 1, wild type, deletion of the first 32 residues to remove the TMD; 35-residue flexible linker between the two subunits; Msp1, subunit 2, Walker B mutant E193Q, deletion of the first 32 residues to remove the TMD; Two Msp1 subunits on one chain; on SEC a mixture of the single chain (dimer) and the pseudohexamer (three chains); also called WT‐EQ dimer; source: E. coli BL21 pRIL, …
B3: His6‐EQ‐WT‐2xStrep Dimer (covalently linked Msp1 dimer, soluble) (enzyme)
chain: B2 chain with E161Q, Q526E
notes: Msp1, subunit 1, Walker B mutant E193Q, deletion of the first 32 residues to remove the TMD; 35-residue flexible linker between the two subunits; Msp1, subunit 2, wild type, deletion of the first 32 residues to remove the TMD; Two Msp1 subunits on one chain; on SEC a mixture of the single chain (dimer) and the pseudohexamer (three chains); also called EQ‐WT dimer; source: E. coli BL21 pRIL, …

Biological target: the molecule itself
Assay: SEC; analytical SEC, S200 Increase 3.2/300 GL, 20 mM Tris pH 7.5, 100 mM NaCl, 0.5 mM TCEP; 0.1 mL of 1.2 mg/mL (5 uM hexamer/pseudohexamer) Msp1 with 2 mM ATP, 2 mM MgCl2; 0.1 mL/min

Compared with B1, B2 is lower in “stoichiometry N” value: 6 for the first, 3 for the second.

For B3, the “stoichiometry N” value was 3.
